Experimental data as given in article doi:10.1101/2025.06.03.657256 (bioRxiv, 2025).

B1: PLIN4-20mer (domain or fragment, human, UniProt Q96Q06 260-919, looked up)
chain: SKTVLTGTKDTVCSGVTGAMNVAKGTIQTGVDTSKTVLTGTKDTVCSGVTGAMNVAKGTIQTGVDTSKTVLTGTKDTVCSGVTGAMNVAKGTIQTGVDTTKTVLTGTKNTVCSGVTGAVNLAKEAIQGGLDTTKSMVMGTKDTMSTGLTGAANVAKGAMQTGLNTTQNIATGTKDTVCSGVTGAMNLARGTIQTGVDTTKIVLTGTKDTVCSGVTGAANVAKGAVQGGLDTTKSVLTGTKDAVSTGLTGAVNVAKGTVQTGVDTTKTVLTGTKDTVCSGVTSAVNVAKGAVQGGLDTTKSVVIGTKDTMSTGLTGAANVAKGAVQTGVDTAKTVLTGTKDTVTTGLVGAVNVAKGTVQTGMDTTKTVLTGTKDTIYSGVTSAVNVAKGAVQTGLKTTQNIATGTKNTFGSGVTSAVNVAKGAAQTGVDTAKTVLTGTKDTVTTGLMGAVNVAKGTVQTSVDTTKTVLTGTKDTVCSGVTGAANVAKGAIQGGLDTTKSVLTGTKDAVSTGLTGAVKLAKGTVQTGMDTTKTVLTGTKDAVCSGVTGAANVAKGAVQMGVDTAKTVLTGTKDTVCSGVTGAANVAKGAVQTGLKTTQNIATGTKNTLGSGVTGAAKVAKGAVQGGLDTTKSVLTGTKDAVSTGLTGAVNLAKGTVQTGVDT
B2: PLIN4-4mer[689:] (domain or fragment, human, UniProt Q96Q06 689-820, looked up)
chain: AKTVLTGTKDTVTTGLMGAVNVAKGTVQTSVDTTKTVLTGTKDTVCSGVTGAANVAKGAIQGGLDTTKSVLTGTKDAVSTGLTGAVKLAKGTVQTGMDTTKTVLTGTKDAVCSGVTGAANVAKGAVQMGVDT
B3: PLIN4-4mer[326:] (domain or fragment, human, UniProt Q96Q06 326-457, looked up)
chain: SKTVLTGTKDTVCSGVTGAMNVAKGTIQTGVDTTKTVLTGTKNTVCSGVTGAVNLAKEAIQGGLDTTKSMVMGTKDTMSTGLTGAANVAKGAMQTGLNTTQNIATGTKDTVCSGVTGAMNLARGTIQTGVDT
B4: 4x1mer[260:] released from MBP-4x1mer[260:] by TEV protease (domain or fragment, human, UniProt Q96Q06 260-292, looked up)
chain: SKTVLTGTKDTVCSGVTGAMNVAKGTIQTGVDTSKTVLTGTKDTVCSGVTGAMNVAKGTIQTGVDTSKTVLTGTKDTVCSGVTGAMNVAKGTIQTGVDTSKTVLTGTKDTVCSGVTGAMNVAKGTIQTGVDT
B5: PLIN4-4mer[557:] (domain or fragment, human, UniProt Q96Q06 557-688, looked up)
chain: TKSVVIGTKDTMSTGLTGAANVAKGAVQTGVDTAKTVLTGTKDTVTTGLVGAVNVAKGTVQTGMDTTKTVLTGTKDTIYSGVTSAVNVAKGAVQTGLKTTQNIATGTKNTFGSGVTSAVNVAKGAAQTGVDT

Molecular target: the molecule itself
Assay: negative-stain EM of fibrils

Binding result, binds:
B1

Molecular target: the molecule itself
Assay: thioflavin T

Binding result, binds:
SKTVLTGTKDTVCSGVTGAMNVAKGTIQTGVDT (peptide, UniProt Q96Q06 260-292, looked up) [1mer[260:]]
B2
B3
B4
B5
